Literature values as cited in article PMC3491057, “Proliferating Cell Nuclear Antigen (PCNA) Interactions in Solution Studied by NMR” (PLoS ONE, 2012).

Legend:
[1] = target: p21 (p2120) 141-160 (Homo sapiens) (UniProt P38936)
[2] = target: Fen-1 (Homo sapiens) (UniProt P39748); test: SPR
[3] = target: p21 (p2122) 139-160 (Homo sapiens) (UniProt P38936)
[4] = target: p21 87-164 (Homo sapiens) (UniProt P38936)
Sequence of p21 87-164 (Homo sapiens) (P38936 87-164): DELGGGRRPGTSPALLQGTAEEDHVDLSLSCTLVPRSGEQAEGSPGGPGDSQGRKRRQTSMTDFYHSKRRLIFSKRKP

Sequence of PCNA (P12004 whole entry): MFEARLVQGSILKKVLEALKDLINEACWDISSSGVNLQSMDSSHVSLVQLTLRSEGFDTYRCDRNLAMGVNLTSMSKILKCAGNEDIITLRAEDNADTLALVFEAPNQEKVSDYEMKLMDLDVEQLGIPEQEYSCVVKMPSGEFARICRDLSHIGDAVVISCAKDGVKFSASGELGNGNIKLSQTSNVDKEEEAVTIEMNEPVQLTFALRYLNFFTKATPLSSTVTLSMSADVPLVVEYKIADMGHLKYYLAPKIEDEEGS
Sequence of Fen-1 (Homo sapiens) (P39748 whole entry): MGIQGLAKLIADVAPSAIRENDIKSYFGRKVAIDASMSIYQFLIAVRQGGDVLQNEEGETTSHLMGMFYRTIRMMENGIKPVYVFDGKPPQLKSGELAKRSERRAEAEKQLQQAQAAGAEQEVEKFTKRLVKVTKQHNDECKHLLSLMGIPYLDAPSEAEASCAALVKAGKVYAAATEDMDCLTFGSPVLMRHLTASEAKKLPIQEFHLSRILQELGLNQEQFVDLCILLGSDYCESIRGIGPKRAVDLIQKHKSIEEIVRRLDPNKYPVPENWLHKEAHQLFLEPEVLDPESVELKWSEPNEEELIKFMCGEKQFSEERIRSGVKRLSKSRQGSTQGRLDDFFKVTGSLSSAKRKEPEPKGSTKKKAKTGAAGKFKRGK
Sequence of p21 (p2120) 141-160 (Homo sapiens) (P38936 141-160): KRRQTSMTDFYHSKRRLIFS
Sequence of p21 (p2122) 139-160 (Homo sapiens) (P38936 139-160): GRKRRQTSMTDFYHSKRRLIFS

Kd [1]: 88 nM
Kd [2]: 60 nM
Kd [3]: 83 nM
Kd [4]: 15 nM
Substance: PCNA (from UniProt P12004)
